Data set [1] addresses Plasmodium falciparum soluble inorganic pyrophosphatase (PfPPase), full length (Plasmodium falciparum). Kind of data set: SEC; gel permeation chromatography on S-200 16/60; 30 mM HEPES-Na pH 7.2, 100 mM NaCl, 1 mM DTT; absorbance at 280 nm, compared with Mwt markers. (In gel filtration, larger molecules generally elute earlier.)
For data set [2] the target is unchanged. Kind of data set: native gel or EMSA; blue native PAGE of purified recombinant PfPPase from E. coli. In general terms: Mobility shift assays separate free from complexed probe on a gel.
Data set [3] concerns the target T1, PfPPase (Plasmodium falciparum, UniProt O77392).
T1 construct: gene MAL3P6.3
T1 sequence (O77392 1-380): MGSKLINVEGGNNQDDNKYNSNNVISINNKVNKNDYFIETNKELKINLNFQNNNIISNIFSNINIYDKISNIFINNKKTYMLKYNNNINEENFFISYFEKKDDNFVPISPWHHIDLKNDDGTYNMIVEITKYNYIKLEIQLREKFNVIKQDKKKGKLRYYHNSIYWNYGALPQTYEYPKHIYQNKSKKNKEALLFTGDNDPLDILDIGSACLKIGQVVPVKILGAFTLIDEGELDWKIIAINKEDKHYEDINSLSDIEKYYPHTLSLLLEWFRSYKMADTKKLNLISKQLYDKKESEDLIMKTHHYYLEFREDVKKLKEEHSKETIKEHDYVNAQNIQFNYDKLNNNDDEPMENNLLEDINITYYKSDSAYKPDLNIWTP
The conditions noted are these: active site (P1 phosphate position), chains B and C; Se-Met protein crystallised with 1 mM PPi and 3 mM MgCl2.

Data set [4] addresses Toxoplasma gondii soluble inorganic pyrophosphatase (TgPPase) (Toxoplasma gondii). Kind of data set: SEC; TgPPase in solution (Supplementary Figure 1b); the sentence names no method; gel filtration analysis is named in p-0022.
Substrate in data set [5]: O=P(O)(O)OP(=O)(O)O
Kind of data set: malachite green phosphate release assay. The data set is classed as biochemical, Plasmodium falciparum. Particulars: 3 mM Mg2+, pH 7.2, 37 °C, 100 mM NaCl, 1.4 nM enzyme, pH 7.2. The source says: (§1) malachite green phosphate release assay on PfPPase

Substrate in data set [6]: O=P(O)(O)OP(=O)(O)OP(=O)(O)O
In words: malachite green phosphate release assay. Format: biochemical, Plasmodium falciparum. The conditions noted are these: 1 mM Zn2+, pH 7.0, 37 °C, 100 mM NaCl, pH 7.0.
Description: as §1

Substrate in data set [7]: Nc1ncnc2c1ncn2[C@@H]1O[C@H](COP(=O)(O)OP(=O)(O)OP(=O)(O)O)[C@@H](O)[C@H]1O
In words: malachite green phosphate release assay. The data set is classed as biochemical, Plasmodium falciparum. The conditions noted are these: 1 mM Zn2+, pH 7.2, 37 °C, 100 mM NaCl, pH 7.2.
Description: as §1

“And” between values parts separate entries of the source, which are not always exact repeats. Identical values can stand only once.

With “Plasmodium falciparum soluble inorganic pyrophosphatase (PfPPase), full length (enzyme)”, the stoichiometry N in data set [1] is 2 and 4; in data set [2] it was 2.
For `O=P(O)(O)O` [Pi], in data set [3], the “X-ray crystal structure, 3.2 Å” value was “PfPPase active site showed electron density for only one Pi molecule”.
“Toxoplasma gondii soluble inorganic pyrophosphatase (TgPPase) (enzyme)” showed a stoichiometry N in data set [4] of 2.

B1: PfPPase (Plasmodium falciparum 3D7) (protein)
chain: MGSKLINVEGGNNQDDNKYNSNNVISINNKVNKNDYFIETNKELKINLNFQNNNIISNIFSNINIYDKISNIFINNKKTYMLKYNNNINEENFFISYFEKKDDNFVPISPWHHIDLKNDDGTYNMIVEITKYNYIKLEIQLREKFNVIKQDKKKGKLRYYHNSIYWNYGALPQTYEYPKHIYQNKSKKNKEALLFTGDNDPLDILDIGSACLKIGQVVPVKILGAFTLIDEGELDWKIIAINKEDKHYEDINSLSDIEKYYPHTLSLLLEWFRSYKMADTKKLNLISKQLYDKKESEDLIMKTHHYYLEFREDVKKLKEEHSKETIKEHDYVNAQNIQFNYDKLNNNDDEPMENNLLEDINITYYKSDSAYKPDLNIWTP
notes: full length 1-380, pETM41, MBP-6xHis tag cleaved with TEV, E. coli BL21-CodonPlus; ~45 kDa, dimer; crystal protein Se-Met labelled
For the molecule B1, in data set [5], the Km is listed as 10 ± 1.8 µM, the kcat is 266 ± 11.4 s⁻¹ and the kcat/Km turned out to be 2.66e+07 M⁻¹ s⁻¹. Besides, in data set [6], the Km is recorded as 1.6 ± 0.3 µM, the kcat came out at 26.3 ± 3 s⁻¹ and the kcat/Km was determined as 1.6e+07 M⁻¹ s⁻¹. For the same molecule, in data set [7], the Km is on record as 64 ± 4.2 µM, the kcat came out at 6.3 ± 1.2 s⁻¹ and the kcat/Km was 90000 M⁻¹ s⁻¹.

By stoichiometry N is commonly meant the number of molecules, sites or subunits per partner or assembly. In general, Km refers to the concentration of substrate that gives half-maximal velocity. Broadly, the kcat is the number of substrate molecules converted per active site and unit of time at saturation. The kcat/Km is the second-order rate constant that governs catalysis at low substrate concentration.

Source of the values: publication PMC5507929, “Structural and Biochemical Characterization of Apicomplexan Inorganic Pyrophosphatases” (Scientific Reports, 2017).
